# T1: PDLIM3, Q53GG5
# T1 sequence (Q53GG5 1-94, limits assumed, looked up): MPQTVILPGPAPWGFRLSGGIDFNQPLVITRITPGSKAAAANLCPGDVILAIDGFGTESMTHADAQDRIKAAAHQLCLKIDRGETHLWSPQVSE
# T2: PDZD7_1, Q9H5P4
# T2 sequence (Q9H5P4 81-178, limits assumed, looked up): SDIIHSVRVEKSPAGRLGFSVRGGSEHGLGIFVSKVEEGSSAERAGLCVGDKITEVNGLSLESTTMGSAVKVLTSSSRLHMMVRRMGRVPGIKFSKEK
# T3: LNX2_1, Q8N448
# T3 sequence (Q8N448 228-328, limits assumed, looked up): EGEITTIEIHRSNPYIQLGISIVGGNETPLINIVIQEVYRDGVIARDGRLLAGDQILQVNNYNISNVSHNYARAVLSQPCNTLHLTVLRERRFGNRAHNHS
# T4: SHANK3, Q9BYB0
# T4 sequence (Q9BYB0 641-750, limits assumed, looked up): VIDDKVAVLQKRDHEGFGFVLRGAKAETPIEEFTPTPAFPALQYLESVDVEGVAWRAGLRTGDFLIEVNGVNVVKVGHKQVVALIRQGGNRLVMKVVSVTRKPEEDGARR
# T5: SYNPO2L, Q9H987
# T5 sequence (Q9H987 1-98, limits assumed, looked up): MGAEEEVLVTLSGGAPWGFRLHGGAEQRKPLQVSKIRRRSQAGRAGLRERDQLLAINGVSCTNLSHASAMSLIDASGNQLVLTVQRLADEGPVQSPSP
# T6: SIPA1L3, O60292
# T6 sequence (O60292 961-1052, limits assumed, looked up): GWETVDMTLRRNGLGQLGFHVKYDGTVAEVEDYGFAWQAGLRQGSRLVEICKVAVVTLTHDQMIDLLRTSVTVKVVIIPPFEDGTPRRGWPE
# T7: INTU, Q9ULD6
# T7 sequence (Q9ULD6 180-273, limits assumed, looked up): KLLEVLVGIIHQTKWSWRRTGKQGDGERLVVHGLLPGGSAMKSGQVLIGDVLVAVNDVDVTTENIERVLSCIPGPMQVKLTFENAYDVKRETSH
# T8: PDZD2_1, O15018
# T8 sequence (O15018 80-192, limits assumed, looked up): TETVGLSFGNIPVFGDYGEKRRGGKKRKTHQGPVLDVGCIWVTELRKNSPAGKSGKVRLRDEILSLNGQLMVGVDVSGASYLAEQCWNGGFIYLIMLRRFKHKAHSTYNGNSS
# T9: PDZD8, Q8NEN9
# T9 sequence (Q8NEN9 361-459, limits assumed, looked up): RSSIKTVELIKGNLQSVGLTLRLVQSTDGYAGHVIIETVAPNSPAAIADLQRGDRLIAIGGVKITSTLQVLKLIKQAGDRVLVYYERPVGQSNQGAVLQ
# T10: MPDZ_13, O75970
# T10 sequence (O75970 1982-2070, limits assumed, looked up): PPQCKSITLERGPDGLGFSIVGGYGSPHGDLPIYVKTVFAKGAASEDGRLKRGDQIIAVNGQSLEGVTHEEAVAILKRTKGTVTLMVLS
# T11: SHROOM4, Q9ULL8
# T11 sequence (Q9ULL8 5-102, limits assumed, looked up): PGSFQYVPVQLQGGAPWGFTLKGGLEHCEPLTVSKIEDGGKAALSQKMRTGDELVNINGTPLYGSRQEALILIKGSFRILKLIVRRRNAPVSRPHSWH
# T12: PDZD11, Q5EBL8
# T12 sequence (Q5EBL8 42-139, limits assumed, looked up): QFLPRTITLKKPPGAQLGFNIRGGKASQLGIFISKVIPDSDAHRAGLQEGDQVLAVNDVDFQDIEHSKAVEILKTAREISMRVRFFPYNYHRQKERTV
# What was measured:
# Experiment in all cases: holdup assay
# Parameters in all cases: key: below the threshold = too weak to quantify, mostly under pKd 3.1 to 4
# PDLIM3, Q53GG5 = molecular target: T1, PDLIM3, Q53GG5
# PDLIM4, P50479 = molecular target: PDLIM4, P50479
# Sequence of PDLIM4, P50479 (P50479 1-83): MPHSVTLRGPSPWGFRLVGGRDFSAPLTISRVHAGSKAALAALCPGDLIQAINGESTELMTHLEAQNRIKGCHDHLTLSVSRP
# PDZD7_1, Q9H5P4 = molecular target: T2, PDZD7_1, Q9H5P4
# RIMS1, Q86UR5 = molecular target: RIMS1, Q86UR5
# Sequence of RIMS1, Q86UR5 (Q86UR5 584-692): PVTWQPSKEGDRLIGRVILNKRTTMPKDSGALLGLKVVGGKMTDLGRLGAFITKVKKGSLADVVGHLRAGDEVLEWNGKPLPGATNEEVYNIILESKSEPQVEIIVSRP
# LNX2_1, Q8N448 = molecular target: T3, LNX2_1, Q8N448
# DLG5_2, Q8TDM6 = molecular target: DLG5_2, Q8TDM6
# Sequence of DLG5_2, Q8TDM6 (Q8TDM6 714-800): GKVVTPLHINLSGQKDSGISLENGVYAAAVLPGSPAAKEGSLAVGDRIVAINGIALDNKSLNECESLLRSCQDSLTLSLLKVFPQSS
# DLG1_3, Q12959 = molecular target: DLG1_3, Q12959
# Sequence of DLG1_3, Q12959 (Q12959 457-571): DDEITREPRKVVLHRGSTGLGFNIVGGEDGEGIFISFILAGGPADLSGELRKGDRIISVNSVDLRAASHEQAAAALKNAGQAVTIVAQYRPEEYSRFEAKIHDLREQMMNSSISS
# MAGI1_3, Q96QZ7 = molecular target: MAGI1_3, Q96QZ7
# Sequence of MAGI1_3, Q96QZ7 (Q96QZ7 638-725): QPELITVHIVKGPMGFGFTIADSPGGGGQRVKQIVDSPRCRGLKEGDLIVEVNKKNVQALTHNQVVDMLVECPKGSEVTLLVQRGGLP
# PDZD9, Q8IXQ8 = molecular target: PDZD9, Q8IXQ8
# Sequence of PDZD9, Q8IXQ8 (Q8IXQ8 23-120): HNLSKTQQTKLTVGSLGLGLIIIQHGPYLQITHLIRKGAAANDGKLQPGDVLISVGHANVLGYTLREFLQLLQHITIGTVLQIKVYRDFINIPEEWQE
# SHANK3, Q9BYB0 = molecular target: T4, SHANK3, Q9BYB0
# PARD3_1, Q8TEW0 = molecular target: PARD3_1, Q8TEW0
# Sequence of PARD3_1, Q8TEW0 (Q8TEW0 264-372): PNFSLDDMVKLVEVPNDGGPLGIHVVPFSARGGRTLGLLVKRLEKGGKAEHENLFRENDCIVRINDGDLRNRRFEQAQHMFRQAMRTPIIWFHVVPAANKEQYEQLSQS
# SYNPO2L, Q9H987 = molecular target: T5, SYNPO2L, Q9H987
# TJP1_1, Q07157 = molecular target: TJP1_1, Q07157
# Sequence of TJP1_1, Q07157 (Q07157 18-120): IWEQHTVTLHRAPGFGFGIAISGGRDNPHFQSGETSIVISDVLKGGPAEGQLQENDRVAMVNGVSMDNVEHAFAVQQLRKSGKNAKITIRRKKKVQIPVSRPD
# DLG2_1, Q15700 = molecular target: DLG2_1, Q15700
# SIPA1L3, O60292 = molecular target: T6, SIPA1L3, O60292
# INTU, Q9ULD6 = molecular target: T7, INTU, Q9ULD6
# PDZD2_1, O15018 = molecular target: T8, PDZD2_1, O15018
# SCRIB_4, Q14160 = molecular target: SCRIB_4, Q14160
# Sequence of SCRIB_4, Q14160 (Q14160 1095-1204): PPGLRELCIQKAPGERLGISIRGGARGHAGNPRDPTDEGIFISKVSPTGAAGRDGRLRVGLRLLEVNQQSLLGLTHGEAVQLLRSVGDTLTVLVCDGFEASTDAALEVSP
# RIMS2, Q9UQ26 = molecular target: RIMS2, Q9UQ26
# Sequence of RIMS2, Q9UQ26 (Q9UQ26 637-758): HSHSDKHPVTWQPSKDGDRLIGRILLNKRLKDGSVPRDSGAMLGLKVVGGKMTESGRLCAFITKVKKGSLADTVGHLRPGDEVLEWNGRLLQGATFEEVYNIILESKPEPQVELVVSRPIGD
# NHERF4_3, Q86UT5 = molecular target: NHERF4_3, Q86UT5
# Sequence of NHERF4_3, Q86UT5 (Q86UT5 325-412): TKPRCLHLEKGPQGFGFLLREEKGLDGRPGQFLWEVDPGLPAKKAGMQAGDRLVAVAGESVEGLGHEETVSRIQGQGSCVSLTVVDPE
# PDZD8, Q8NEN9 = molecular target: T9, PDZD8, Q8NEN9
# TJP1_2, Q07157 = molecular target: TJP1_2, Q07157
# Sequence of TJP1_2, Q07157 (Q07157 181-274): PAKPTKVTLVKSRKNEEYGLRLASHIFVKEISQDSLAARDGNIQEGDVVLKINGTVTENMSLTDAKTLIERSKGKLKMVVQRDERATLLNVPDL
# MPDZ_13, O75970 = molecular target: T10, MPDZ_13, O75970
# SHROOM4, Q9ULL8 = molecular target: T11, SHROOM4, Q9ULL8
# PDZD11, Q5EBL8 = molecular target: T12, PDZD11, Q5EBL8
# [1] = modified: acetyl on K at position -1 from the C-terminal residue
# [2] = modified: phospho on S at position -3 from the C-terminal residue
# [3] = plain residues with an end cap or a label only (N-terminal biotin on a linker: (peg)3)
binder,measurement,setting,value
"DEDQHTQITKV [PTEN_Ac, P60484]",pKd,"PDLIM3, Q53GG5; [1]",below the threshold
same,pKd,"PDLIM4, P50479; [1]",below the threshold
same,pKd,"PDZD7_1, Q9H5P4; [1]",below the threshold
same,pKd,"RIMS1, Q86UR5; [1]",below the threshold
same,pKd,"LNX2_1, Q8N448; [1]",below the threshold
same,pKd,"DLG5_2, Q8TDM6; [1]",below the threshold
same,pKd,"DLG1_3, Q12959; [1]",below the threshold
same,pKd,"MAGI1_3, Q96QZ7; [1]",4.98
same,pKd,"PDZD9, Q8IXQ8; [1]",below the threshold
same,pKd,"SHANK3, Q9BYB0; [1]",4.04
same,pKd,"PARD3_1, Q8TEW0; [1]",below the threshold
same,pKd,"SYNPO2L, Q9H987; [1]",below the threshold
same,pKd,"TJP1_1, Q07157; [1]",3.94
same,pKd,"DLG2_1, Q15700; [1]",3.98
same,pKd,"SIPA1L3, O60292; [1]",below the threshold
same,pKd,"INTU, Q9ULD6; [1]",below the threshold
same,pKd,"PDZD2_1, O15018; [1]",below the threshold
same,pKd,"SCRIB_4, Q14160; [1]",below the threshold
same,pKd,"RIMS2, Q9UQ26; [1]",below the threshold
same,pKd,"NHERF4_3, Q86UT5; [1]",below the threshold
same,pKd,"PDZD8, Q8NEN9; [1]",below the threshold
same,pKd,"TJP1_2, Q07157; [1]",below the threshold
same,pKd,"MPDZ_13, O75970; [1]",4.29
same,pKd,"SHROOM4, Q9ULL8; [1]",below the threshold
same,pKd,"PDZD11, Q5EBL8; [1]",below the threshold
"RRVRKLPSTTL [RPS6KA1_-3P, Q15418]",pKd,"PDLIM3, Q53GG5; [2]",below the threshold
same,pKd,"PDLIM4, P50479; [2]",3.63
same,pKd,"PDZD7_1, Q9H5P4; [2]",below the threshold
same,pKd,"RIMS1, Q86UR5; [2]",below the threshold
same,pKd,"LNX2_1, Q8N448; [2]",below the threshold
same,pKd,"DLG5_2, Q8TDM6; [2]",below the threshold
same,pKd,"DLG1_3, Q12959; [2]",below the threshold
same,pKd,"MAGI1_3, Q96QZ7; [2]",below the threshold
same,pKd,"PDZD9, Q8IXQ8; [2]",below the threshold
same,pKd,"SHANK3, Q9BYB0; [2]",below the threshold
same,pKd,"PARD3_1, Q8TEW0; [2]",below the threshold
same,pKd,"SYNPO2L, Q9H987; [2]",below the threshold
same,pKd,"TJP1_1, Q07157; [2]",below the threshold
same,pKd,"DLG2_1, Q15700; [2]",3.69
same,pKd,"SIPA1L3, O60292; [2]",below the threshold
same,pKd,"INTU, Q9ULD6; [2]",below the threshold
same,pKd,"PDZD2_1, O15018; [2]",below the threshold
same,pKd,"SCRIB_4, Q14160; [2]",below the threshold
same,pKd,"RIMS2, Q9UQ26; [2]",below the threshold
same,pKd,"NHERF4_3, Q86UT5; [2]",below the threshold
same,pKd,"PDZD8, Q8NEN9; [2]",below the threshold
same,pKd,"TJP1_2, Q07157; [2]",below the threshold
same,pKd,"MPDZ_13, O75970; [2]",3.72
same,pKd,"SHROOM4, Q9ULL8; [2]",below the threshold
same,pKd,"PDZD11, Q5EBL8; [2]",below the threshold
"YDEPTTTTSVPL [SARS-Cov2-3a, P0DTC3]",pKd,"PDLIM3, Q53GG5; [3]",below the threshold
same,pKd,"PDLIM4, P50479; [3]",below the threshold
same,pKd,"PDZD7_1, Q9H5P4; [3]",below the threshold
same,pKd,"RIMS1, Q86UR5; [3]",below the threshold
same,pKd,"LNX2_1, Q8N448; [3]",below the threshold
same,pKd,"DLG5_2, Q8TDM6; [3]",below the threshold
same,pKd,"DLG1_3, Q12959; [3]",below the threshold
same,pKd,"MAGI1_3, Q96QZ7; [3]",below the threshold
same,pKd,"PDZD9, Q8IXQ8; [3]",below the threshold
same,pKd,"SHANK3, Q9BYB0; [3]",below the threshold
same,pKd,"PARD3_1, Q8TEW0; [3]",3.98
same,pKd,"SYNPO2L, Q9H987; [3]",below the threshold
same,pKd,"TJP1_1, Q07157; [3]",below the threshold
same,pKd,"DLG2_1, Q15700; [3]",below the threshold
same,pKd,"SIPA1L3, O60292; [3]",below the threshold
same,pKd,"INTU, Q9ULD6; [3]",3.86
same,pKd,"PDZD2_1, O15018; [3]",below the threshold
same,pKd,"SCRIB_4, Q14160; [3]",below the threshold
same,pKd,"RIMS2, Q9UQ26; [3]",below the threshold
same,pKd,"NHERF4_3, Q86UT5; [3]",below the threshold
same,pKd,"PDZD8, Q8NEN9; [3]",below the threshold
same,pKd,"TJP1_2, Q07157; [3]",4.56
same,pKd,"MPDZ_13, O75970; [3]",below the threshold
same,pKd,"SHROOM4, Q9ULL8; [3]",below the threshold
same,pKd,"PDZD11, Q5EBL8; [3]",below the threshold

# Source: PMC9482650, “Quantitative fragmentomics allow affinity mapping of interactomes” (Nature Communications, 2022)
